According to the supplement of paper PMC9170038:

System: MS2 coat protein
Assay: apparent KD of MS2 coat protein; designed switch direction (-1 OFF switch, 1 ON switch): -1; higher = weaker reporter binding
In short: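 Apparent KD, taken as the median over clusters for each design, was obtained by curve-fitting normalised cluster fluorescence. Designed RNA switches had been transcribed on Illumina chips by stalled E. coli RNA polymerase and titrated with SNAP-549-labelled MS2 coat protein, doubling from 0.7 or 1.5 nM to 3 µM.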

[1] = Eterna round: R95, input ligand: microRNA oligo, concentration not stated
[2] = Eterna round: R95, input ligand: FMN 200 uM
[3] = Eterna round: R95, input ligand: none
[4] = input ligand: microRNA oligo, concentration not stated

Sequence	apparent KD of MS2 coat protein (input ligand: FMN 200 uM)	apparent KD of MS2 coat protein (input ligand: none)	further results
AAGGUGUUAGGAUAUCGUAGUUUGAGGCAGACGGGAUUUUGCGAGAAGGAACAUGAGGAUCACCCAUGUAGGAU [JR_Exclu4_Sub040] (puzzle: Exclusion 4)			apparent KD of MS2 coat protein [1]: 25.9 nM
AAGUACCGUCACGAUAGUGAUGGUACAACAAGCAAAUGUACAUGAGGAUCACCCAUGUCCUCUUUUGCUCGUCUUAU [Sensor 3 - 94] (puzzle: Sensor v3, turn-off variant 2)			apparent KD of MS2 coat protein [2]: 53.3 nM; apparent KD of MS2 coat protein [1]: 28.9 nM; apparent KD of MS2 coat protein [3]: 53.8 nM
AAGUAUAGAGGAUAUAGUGAGUACUACAUGAGGAUCACCCAUGUUCUUCAAAACGUAUUUCUAGAAGGCUGUUAAA [EX-5 Malc#20] (puzzle: Exclusion 5)			apparent KD of MS2 coat protein [1]: 43.5 nM
AAGUCGACGGUGAGGAUAUUAGUUGAACGACAGAUUAAGAAGGUACAUGAGGAUCACCCAUGUGGGUAACGUUG [Brourd's EX4 #77] (Eterna round: R97, puzzle: Brourd's mod of Exclusion 4)	76.3 nM	107 nM	
AAGUCGACGGUGAGGAUAUUGGUUGAACGACAGAUCAAGAAGGCACAUGAGGAUCACCCAUGUGGGUAACGUCG [Brourd's EX4 #38] (Eterna round: R97, puzzle: Brourd's mod of Exclusion 4)	34.5 nM	19.1 nM	
AAGUUGUGAGGAUAUACACAUCGUGCGGAAAGAUCCUUGUCACAUGAGGAUCACCCAUGUAGAAGGCGCGGUAU [Eternabot (L1) Solution 94] (Eterna round: R97, puzzle: Exclusion 2)	530 nM	740 nM	
AAUAACAAGCAGAUCCUCCACAUGAGGAUCACCCAUGUGCUCGUCUUGUAAAGUACUAUCACGAAAGUGAUAGUACA (Eterna round: R97, puzzle: Sensor, turn-off variant 1)	724 nM	718 nM	
AAUAACAAGCCGAUCCUCAACAUGAGGAUCACCCAUGUGCUCGUCUUGUAAAGUACUAUCACGAAAGUGAUAGUACA (Eterna round: R97, puzzle: Sensor, turn-off variant 1)	319 nM	419 nM	
AAUAACAAGCCGAUCCUUAACAUGAGGAUCACCCAUGUGCUCGUCUUGUAAAGUACUAUCACGAAAGUGAUAGUACA (Eterna round: R97, puzzle: Sensor, turn-off variant 1)	25.1 nM	22.7 nM	
AAUAACAGAGGAUAUACUAUUUUAUGUAUUUAUUAUUUUAAACAUGAGGAUCACCCAUGUAGAAGGCUGAUUGA [JMF 70] (puzzle: Exclusion 2)			apparent KD of MS2 coat protein [1]: 28.5 nM
AAUAACAGAGGAUAUACUAUUUUAUGUGUUUGUUAUUUUAAACAUGAGGAUCACCCAUGUAGAAGGCUGAGUAA [JMF 29] (puzzle: Exclusion 2)			apparent KD of MS2 coat protein [1]: 21.9 nM
AAUAACAGAGGAUAUACUAUUUUAUGUGUUUGUUAUUUUGAACAUGAGGAUCACCCAUGUAGAAGGCUGAAUGA [JMF 65] (puzzle: Exclusion 2)			apparent KD of MS2 coat protein [1]: 24.7 nM
AAUAACAGAGGAUAUACUGUUUUAUGUGUUUGUUAUUUUGAACAUGAGGAUCACCCAUGUAGAAGGCUGAUUGA [JMF 76] (puzzle: Exclusion 2)			apparent KD of MS2 coat protein [1]: 46 nM
AAUAACAUGUUGAUCAAAGACAUGAGGAUCACCCAUGUCAGCUUUUUGUUCGUAGAUUAACACUAAUAAUAAUAAUA [Stov1new/2-C] (Eterna round: R97, puzzle: Sensor, turn-off variant 1)	16.5 nM	16.5 nM	
AAUAACUGAGGAUAUACUAAAAUAUGAAUAAAAUAAAUAAAACAUGAGGAUCACCCAUGUAGAAGGCAGAAUAA [JMF's Not so obvious solution 8] (puzzle: Exclusion 2)			apparent KD of MS2 coat protein [2]: 21.4 nM; apparent KD of MS2 coat protein [1]: 23.3 nM; apparent KD of MS2 coat protein [3]: 21.5 nM
AAUAAGCGAGGAUAUACUAUUCCUCGACCGGCAGAAACCGGACUUGAGGAUCACCCAAGUAGAAGGCGCAAAAC [Oninso] (Eterna round: R97, puzzle: Exclusion 2)	448 nM	32.8 nM	
AAUAAGCUAGGAUAUACAUGAGGAUCACCCAUGUGAGGGCACGGCCGGCGCGUUUCCGGUAGAAGGAGUCAUAA [Exc;s3-VII] (puzzle: Exclusion 3)			apparent KD of MS2 coat protein [1]: 33.2 nM
AAUACAAGCAAGAUCCUAAACAUGAGGAUCACCCAUGUGCUCGUCUUGUAAAGUACUAUCACGAAAGUGAUAGUACA [Sensor 3, v1 - 62] (puzzle: Sensor v3, turn-off variant 1)			apparent KD of MS2 coat protein [2]: 29.4 nM; apparent KD of MS2 coat protein [1]: 103 nM; apparent KD of MS2 coat protein [3]: 32.7 nM

Sequence	apparent KD of MS2 coat protein (input ligand: FMN 200 uM)	apparent KD of MS2 coat protein (input ligand: none)	further results
AAUAGACAUGAGGAUCACCCAUGUCAGGAUAUUUCGAGUAAGGUGGGCCUAGAAUUGGGAAGAAGGGACCUGGA [Eternabot (L1) Solution 29] (Eterna round: R97, puzzle: Exclusion 1)	17.7 nM	21.3 nM	
AAUCAUCAUGUAGGAUAUGCGUGGCGAAGCUAUGCAGAAGGACAUGAGGAUCACCCAUGUUCUUGCGUCUGCGUACAGAUGCAA [Mat - Exclusion NG 1 - Mod of JL - D72] (Eterna round: R96, puzzle: Exclusion NG 1)	135 nM	72 nM	apparent KD of MS2 coat protein [4]: 67.7 nM
AAUCGGUGAGGAUAUCUAUUGCGGGAGGAAAUUCGCGAAACGGAGAAGGCACAUGAGGAUCACCCAUGUGAAUC [EX4 C.18] (Eterna round: R97, puzzle: Exclusion 4)	25.7 nM	18.8 nM	
AAUCUACAUGUAGGAUAUGCGUGGCAAAGCUAUGCAGAAGGACAUGAGGAUCACCCAUGUUUUAGCGUCUGCGUACAGAUGCGA [Mat - Exclusion NG 1 - Mod of JL - D100] (Eterna round: R96, puzzle: Exclusion NG 1)	147 nM	27.9 nM	apparent KD of MS2 coat protein [4]: 18.4 nM
AAUGAGCAAGUCAGGAUAUUAAGCCACAGCUGGCGUAAGAAGGGACAUGAGGAUCACCCAUGUUCAUCCAAUGG [Eternabot (Original) Solution 15] (Eterna round: R97, puzzle: Brourd's mod of Exclusion 4)	24.5 nM	15.9 nM	
AAUGAUUGACGAGGAUAUUGUGGUGAAACACGACGAGAAGGCGUAUGUCACAUGAGGAUCACCCAUGUGUGCUUUGUGGAUAUA [Ex NG1 #69] (Eterna round: R96, puzzle: Exclusion NG 1)	39.7 nM	31.1 nM	apparent KD of MS2 coat protein [4]: 24.2 nM
AAUUAAACAAGCAGAUCCCACAUGAGGAUCACCCAUGUGCUCGUCUUAUAAGGUACUGUGACAAAAGUCACGGUACC [Mat - Sensor, turn-off var - Eli Mod - D67] (Eterna round: R97, puzzle: Sensor, turn-off variant 1)	47.9 nM	51.7 nM	
AAUUAACAUCAGGAUAUGACUAGCGAUAGCUAGUCAGAAGGGAUGACAUGAGGAUCACCCAUGUGAUCAAUUAA [E6/2-A4] (Eterna round: R97, puzzle: Exclusion 6)	492 nM	131 nM	
AAUUAAUAUCAGGAUAUGACGUGCGAUAGCACGUCAGAAGGGAUGACAUGAGGAUCACCCAUGUGAUCAAUUAA [E6/1-A4] (Eterna round: R97, puzzle: Exclusion 6)	150 nM	33 nM	
AAUUAGUAUGUGAGGAUAUUAAUGGAAUGACUUAUUAAGAAGGCACAUGAGGAUCACCCAUGUGGGAAGUCACG [JR_BMEx4_Sub013] (Eterna round: R97, puzzle: Brourd's mod of Exclusion 4)	49.2 nM	15.6 nM	
AAUUAUUAUUGAGGAUAUGGUAGUGAAACACUACCAGAAGGCGGUAUAAACAUGAGGAUCACCCAUGUGAGCCUGAUGCUUAUG [Ex NG1 #45] (Eterna round: R96, puzzle: Exclusion NG 1)			apparent KD of MS2 coat protein [4]: 18.6 nM
AAUUAUUGAUGAGGAUAUUGUGGUGAAACACCACAAGAAGGCAUUAUACACAUGAGGAUCACCCAUGUGAGCCUGAUGCAUAUA [Ex NG1 #56] (Eterna round: R96, puzzle: Exclusion NG 1)			apparent KD of MS2 coat protein [4]: 13.2 nM
AAUUAUUGAUGAGGAUAUUGUGGUGAAACACGACGAGAAGGCAUAUGUCACAUGAGGAUCACCCAUGUGAGCCUUGUGCAUAUA [Ex NG1 #64] (Eterna round: R96, puzzle: Exclusion NG 1)			apparent KD of MS2 coat protein [4]: 15.8 nM
AAUUAUUUAUGAGGAUAUUGUGGUGAAACACCACAAGAAGGCAUGAUACACAUGAGGAUCACCCAUGUGAGCCUUAUGCAUAUA [Ex NG1 #57] (Eterna round: R96, puzzle: Exclusion NG 1)			apparent KD of MS2 coat protein [4]: 16.5 nM
AAUUAUUUUUGAGGAUAUCGUGGUGAAACACCACGAGAAGGCGAGAUACACAUGAGGAUCACCCAUGUGAGCCUGAUGCUUAUG [Ex NG1 #51] (Eterna round: R96, puzzle: Exclusion NG 1)			apparent KD of MS2 coat protein [4]: 11.5 nM
AAUUUACAUGAGGAUCACCCAUGUGAGGAUAUAUAUAUAUAUUUGUUAUUGUAUGUUUGUAGAAGGCGCGUGAU [JR_Exc1_Sub033] (Eterna round: R97, puzzle: Exclusion 1)	33 nM	39.2 nM	
AAUUUGCAAGCGAGAUCCCACAUGAGGAUCACCCAUGUGCUCGUCUUAUAAGGUACUGUGACGAGAGUCACGGUACC [Mat - Sensor, turn-off var - Eli Mod - D91] (Eterna round: R97, puzzle: Sensor, turn-off variant 1)	15.6 nM	12.1 nM	
ACAAAGCGAGGAUAUACACAGGUGUCCUGGGCGUCAAAUCGACAUGAGGAUCACCCAUGUAGAAGGCGCAAUAG [Diedated] (Eterna round: R97, puzzle: Exclusion 2)	44.9 nM	36.9 nM	
